Laboratory results from paper PMC10676424, “VirB, a transcriptional activator of virulence in Shigella flexneri, uses CTP as a cofactor” (Communications Biology, 2023).

Assays:
Sfl VirB = molecular target: T1, Sfl VirB (Shigella flexneri, UniProt P0A247); test: isothermal titration calorimetry; type: binding
T1 construct: full length, N-terminal GFP tag removed with HRV-3C protease, made in E. coli BL21-Gold (DE3), dimer; gene on invasion plasmid pINV

[1] = molecular target: the molecule itself; test: cross-linking; plasmid entrapment assay: 2 uM VirB, 250 uM CTP, 50 nM plasmid DNA, 1 mM BMOE, room temperature; low stringency buffer (150 mM NaCl, 50 mM Tris-HCl pH 7.5, 5 mM MgCl2) or high stringency buffer (25 mM HEPES/NaOH pH 7.5, 500 mM NaCl, 5 mM MgCl2, 1 mM DTT, 10 uM BSA, 0.01% Tween 20); SDS-PAGE and agarose gel
[2] = molecular target: the molecule itself; test: cross-linking; site-specific cysteine cross-linking with 1 mM BMOE; 10 uM protein, with or without 1 mM CTP and 1 uM 40-bp DNA; 150 mM NaCl (also 500/1000 mM), 50 mM Tris-HCl pH 7.5, 5 mM MgCl2; room temperature (25 °C); SDS-PAGE, Coomassie, band quantification

Molecule	binding result [2]	further results
Nc1ccn([C@@H]2O[C@H](COP(=O)(O)OP(=O)(O)OP(=O)(O)O)[C@@H](O)[C@H]2O)c(=O)n1 [CTP]		Kd (Sfl VirB): ~1000 nM
VirB(C5S, Q15C, A297C) (natural protein, not shown: GFP, N-terminal, cleaved) MVDLSNDLLSIKEGCKKEFTLHSGNKVSFIKAKIPHKRIQDLTFVNQKTNVRDQESLTEESLADIIKTIKLQQFFPVIGREIDGRIEILDGTRRRASAIYAGADLEVLYSKEYISTLDARKLANDIQTAKEHSIRELGIGLNFLKVSGMSYKDIAKKENLSRAKVTRAFQAASVPQEIISLFPIASELNFNDYKILFNYYKGLEKANESLSSTLPILKEEIKDLDTNLPPDIYKKEILNIIKKSKNRKQNPSLKVDSLFISKDKRTYIKRKENKTNRTLIFTLSKINKTVQREIDECIRDIISRHLSSS		stoichiometry N [1]: 2
VirB (natural protein, not shown: GFP, N-terminal, cleaved) MVDLCNDLLSIKEGQKKEFTLHSGNKVSFIKAKIPHKRIQDLTFVNQKTNVRDQESLTEESLADIIKTIKLQQFFPVIGREIDGRIEILDGTRRRASAIYAGADLEVLYSKEYISTLDARKLANDIQTAKEHSIRELGIGLNFLKVSGMSYKDIAKKENLSRAKVTRAFQAASVPQEIISLFPIASELNFNDYKILFNYYKGLEKANESLSSTLPILKEEIKDLDTNLPPDIYKKEILNIIKKSKNRKQNPSLKVDSLFISKDKRTYIKRKENKTNRTLIFTLSKINKTVQREIDEAIRDIISRHLSSS	binds	
VirB(C5S, I30C) (natural protein, also called engineered C5S, I30C; not shown: GFP, N-terminal, cleaved) MVDLSNDLLSIKEGQKKEFTLHSGNKVSFCKAKIPHKRIQDLTFVNQKTNVRDQESLTEESLADIIKTIKLQQFFPVIGREIDGRIEILDGTRRRASAIYAGADLEVLYSKEYISTLDARKLANDIQTAKEHSIRELGIGLNFLKVSGMSYKDIAKKENLSRAKVTRAFQAASVPQEIISLFPIASELNFNDYKILFNYYKGLEKANESLSSTLPILKEEIKDLDTNLPPDIYKKEILNIIKKSKNRKQNPSLKVDSLFISKDKRTYIKRKENKTNRTLIFTLSKINKTVQREIDEAIRDIISRHLSSS	binds	
